Data reported in article PMC10175742.

Biological target: N-cadherin (UniProt P19022)
Experiment: confocal 3D colocalisation
Conditions: reference: nonfailing control (NFC) heart tissue; sites S637,S647,T649,S650

Q: How did the “other: Pearson's correlation coefficient” value turn out when “αT-catenin (CTNNA3) (from UniProt Q9UI47) DCM heart tissue” was run?
A: stronger; reference 0.55 ± 0.04
